The values below come from the supplement of paper PMC10567573.

This data set in a line: protein stability index of a GFP-peptide fusion (GPS, HEK-293T) (PSI 1-6); higher = more stable.
Setting [1] is: treatment: DMSO, c terminus: a fixed tail appended.
[2] abbreviates: treatment: MLN4924 1 uM, 8 h, c terminus: a fixed tail appended.
Where [3] appears, read: treatment: DMSO, c terminus: native.
The mark [4] stands for this setting: treatment: MLN4924 1 uM, 8 h, c terminus: native.

± gives the standard deviation.
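Further: 24-mer peptide tiles fused after GFP, lentivirally expressed, FACS-sorted into six equal bins by GFP/DsRed ratio, decoded by Illumina sequencing, PSI is the read-weighted mean bin number.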

As for GLFRKSGVKSRIQALRQMNEGAID [DLC1], the protein stability index reads like this: under setting [1], 3.36 ± 0.1; under setting [2], 3.71 ± 0.12.

Take GLPGSGKTTLARQLQHDFPRALIF [N4BP2L1]: the protein stability index reads like this: under setting [1], 2.25 ± 0.18; under setting [2], 2.56 ± 0.23.

On to GLQAPPPDDVDYATNPHVKPPYSY [FOXJ1], for which the protein stability index reads like this: under setting [1], 4.42 ± 0.29; under setting [2], 4.46 ± 0.19.

For GLRAGFSSTSYRRTFGPPPSLSPG [PRPH], the protein stability index under setting [1] was 2.62 ± 0.24 and the protein stability index under setting [2] is 2.93 ± 0.15.

For the sequence GLSVSSRFSSGGACGLGGGYGGGF [KRT16], the protein stability index by setting is: under setting [1], 2.2 ± 0.39; under setting [2], 2.52 ± 0.38.

In the case of GPIGGMMPPQPGIPQQQGMRPPMP [ZNF207], the protein stability index reads like this: under setting [1], 4.35 ± 0.3; under setting [2], 4.36 ± 0.27.

As to GPSLPSKRESPGVGGGSGDEASAA [ZBTB22], the protein stability index reads like this: under setting [1], 5.5 ± 0.34; under setting [2], 5.64 ± 0.48.

Regarding GQCLDSTDQLEFTVEPRLLVADLL [RTN2], the protein stability index by setting is: under setting [1], 2.91 ± 0.2; under setting [2], 3 ± 0.26.

In turn, GQDKQFAWHCSESGQRLGGYRTSA [WDFY2] had a protein stability index under setting [1] of 3.51 ± 0.24 and a protein stability index under setting [2] of 3.24 ± 0.28.

For the sequence GQLTGGYKPNPQIYVKLIEECTDL [OAS1], the protein stability index under setting [1] was 2.99 ± 0.21 and the protein stability index under setting [2] turned out to be 3.06 ± 0.093.

As to GRGAFGEVRLVQKKDTGHIYAMKI [STK38L], the protein stability index under setting [1] was determined as 2.09 ± 0.25 and the protein stability index under setting [2] was determined as 2.43 ± 0.49.

In the case of GRGLYVYSLQMKRVIACQKTAHDS [WDR41], the protein stability index was 2.08 ± 0.42 under setting [1] and 2.15 ± 0.34 under setting [2].

Turning to GRSGWPAGGAPGSPIPSPPGPGDD [HES6], the protein stability index is 5.2 ± 0.21 under setting [1] and 5.25 ± 0.093 under setting [2].

GSFTVRADHGEPIGRGTKVILHLK [HSP90AB1] had a protein stability index under setting [1] of 2.1 ± 0.3 and a protein stability index under setting [2] of 2.71 ± 0.3.

On to GSGSSYVQNGTGNAYEEEANKQS [CNOT7], for which the protein stability index was 5.37 ± 0.19 under setting [3] and 5.2 ± 0.23 under setting [4].

In the case of GSRYDARRGVSDWDLRMKLHDRGA [DNAAF3], the protein stability index under setting [1] was found to be 3.61 ± 0.23 and the protein stability index under setting [2] turned out to be 3.66 ± 0.42.

As to GTQHMFEDDPSVLYVSLHRYDHGT [HDAC6], the protein stability index turned out to be 2.34 ± 0.37 under setting [1] and 2.5 ± 0.45 under setting [2].

As for GVRVNNRFELINIDDLEDDPVVNG [TCF25], the protein stability index is 4.41 ± 0.16 under setting [1] and 4.51 ± 0.18 under setting [2].

As for GYGRAPGGLSLHDYKLLKPSLAVN [JUNB], the protein stability index runs as follows: under setting [1], 2.92 ± 0.035; under setting [2], 2.88 ± 0.73.

Regarding GYVSQQGGQRSTPLIIAARNGHAK [FEM1B], the protein stability index is, setting by setting: under setting [1], 3.74 ± 0.15; under setting [2], 3.8 ± 0.34.

Turning to HAAHVVCRELGYVEAKSWTASSSY [LOXL2], the protein stability index runs as follows: under setting [1], 2.31 ± 0.29; under setting [2], 2.28 ± 0.17.

As for HALSGHAKVKPFDPKITCKQECLI [TPH1], the protein stability index is 2.13 ± 0.27 under setting [1] and 2.12 ± 0.19 under setting [2].

Take HDGEDVACPQGGVQYGAGVACSET [LOXL2]: the protein stability index by setting is: under setting [1], 4.99 ± 0.31; under setting [2], 5.42 ± 0.32.

In the case of HEALSRLWELCHLWLRPEVHTKEQ [ZNF396], the protein stability index by setting is: under setting [1], 2.11 ± 0.45; under setting [2], 2.4 ± 0.14.

As for HGSPQLGEGMFQHQTSVAHQPVVR [TBX5], the protein stability index reads like this: under setting [1], 4.19 ± 0.28; under setting [2], 4.13 ± 0.17.

For HKKDCAREKPFKCQECGKTFRVSS [ZNF75A], the protein stability index is 3.45 ± 0.38 under setting [1] and 3.65 ± 0.41 under setting [2].

As for HKPLLICSCEWMAAMFGGSFVESA [RHOBTB1], the protein stability index came to 2.72 ± 0.79 under setting [1] and 2.46 ± 0.85 under setting [2].

HLSSPAKNFFKKAAAALFGGKKDK [PLK2]: the protein stability index under setting [1] was found to be 2.16 ± 0.49 and the protein stability index under setting [2] turned out to be 2.53 ± 0.55.

Regarding HLTRGRKMAHVIAACLYLVCRTEG [BRF1], the protein stability index under setting [1] came out at 2.53 ± 0.99 and the protein stability index under setting [2] turned out to be 2.6 ± 0.48.

HMVSDGSWVVRVQAAKLLGSMEQV [INTS4]: the protein stability index turned out to be 2.48 ± 0.74 under setting [1] and 2.1 ± 0.21 under setting [2].

Turning to HNCAHFCINIPGSYVCRCKQGYIL [MATN2], the protein stability index under setting [1] turned out to be 2.48 ± 0.2 and the protein stability index under setting [2] came to 2.71 ± 0.27.

With HPVCSLCWSRDGHKLVSASTDNIV [RBBP5], the protein stability index reads like this: under setting [1], 2.72 ± 0.28; under setting [2], 2.95 ± 0.44.

Take HQEQVEDLTASHDAALLEMENNHT [MTUS2]: the protein stability index was 5.51 ± 0.2 under setting [1] and 5.4 ± 0.3 under setting [2].

Sequence HQQNKIKDLQKEQKTLQVKCQHYK [CEP70] yielded a protein stability index under setting [1] of 4.11 ± 0.28 and a protein stability index under setting [2] of 4.6 ± 0.21.

Take HQQVEEALSFTLLGSAPLDQEPLL [NEK8]: the protein stability index is, setting by setting: under setting [1], 3.69 ± 0.25; under setting [2], 3.75 ± 0.12.

As for HRGHCERRHRLGGVGAVPGPGTPT [ZBTB22], the protein stability index is, setting by setting: under setting [1], 4.2 ± 0.26; under setting [2], 4.36 ± 0.16.

In the case of HRGPSGHTEASAQRSHMGKLKEPQ, the protein stability index reads like this: under setting [1], 5.1 ± 0.38; under setting [2], 4.87 ± 0.5.

Regarding HRPSLNSVSLQINCQSVAQMNLLQ [DLC1], the protein stability index turned out to be 2.4 ± 0.4 under setting [1] and 2.52 ± 0.32 under setting [2].

For HSIINALKAKLQMTEAALALSEQK [LRRC45], the protein stability index turned out to be 2.63 ± 0.087 under setting [1] and 2.74 ± 0.27 under setting [2].

In the case of HSQNLAKQQRNEVSFVIHNLPIIA [SEPHS2], the protein stability index under setting [1] stood at 2.14 ± 0.089 and the protein stability index under setting [2] is 2.25 ± 0.22.

In the case of HSTLEYKVKERLGTLKNPPKKKMK [LCOR], the protein stability index was 4.47 ± 0.26 under setting [1] and 4.73 ± 0.28 under setting [2].

HTLLNELERNPNGVADGVIKSVLW [CDKL4]: the protein stability index is, setting by setting: under setting [1], 2.58 ± 0.49; under setting [2], 2.7 ± 0.4.

In the case of HTRSLNSIIHQMEKFSSSLHELSS [FBF1], the protein stability index reads like this: under setting [1], 2.97 ± 0.21; under setting [2], 3.06 ± 0.48.

For IAEVCCTSIVYATEKKQTKVEFPE [KCTD10], the protein stability index worked out at 3.42 ± 0.18 under setting [1] and 3.9 ± 0.39 under setting [2].

With IAKAEETHSSLSQELQARLQTVTR [CCDC89], the protein stability index turned out to be 4.25 ± 0.088 under setting [1] and 4.13 ± 0.2 under setting [2].

Regarding IATGPFVAFGIEADDESLLRTSNG [DNAAF3], the protein stability index is, setting by setting: under setting [1], 3.9 ± 0.16; under setting [2], 4.01 ± 0.22.

Take IAVRKSRDKAKMRNLETQHKVLEL [CEBPB]: the protein stability index is, setting by setting: under setting [1], 3.14 ± 0.36; under setting [2], 3.54 ± 0.12.

With ICARACNTTLTQYQLLATHVPTVW [RHOBTB1], the protein stability index by setting is: under setting [1], 2.52 ± 0.49; under setting [2], 2.43 ± 0.7.

Consider IEIVHISTVQILTEGFPPGGGNAR [ZFYVE21], for which the protein stability index runs as follows: under setting [1], 2.51 ± 0.67; under setting [2], 2.72 ± 0.74.

On to IEKEEQEKKRKEEEERRRREEEER [ACBD3], for which the protein stability index under setting [1] was determined as 5.48 ± 0.21 and the protein stability index under setting [2] worked out at 5.66 ± 0.097.

For IESERALISQCGKPVVNVSYRPAY [DUSP5], the protein stability index under setting [1] amounted to 2.6 ± 0.5 and the protein stability index under setting [2] is 2.82 ± 0.13.

Take IFALYSSLKFKSRVPQTWSKRLYG [PLD5]: under setting [2], the protein stability index came out at 2.83 ± 1.7.

As to IGGFTALHYAAMHGRARIARLMLE [ASB7], the protein stability index turned out to be 2.15 ± 0.23 under setting [1] and 2.31 ± 0.22 under setting [2].

Sequence IGSTSESKDWEEVVVESMEQDRIP [MIA2] yielded a protein stability index under setting [1] of 5.08 ± 0.32 and a protein stability index under setting [2] of 5.11 ± 0.26.

Turning to IHTGKKPHVCSLCGKAFYKKYRLT [ZNF649], the protein stability index is, setting by setting: under setting [1], 2.67 ± 0.42; under setting [2], 2.92 ± 0.62.

As for IICYSITDRRSFHEVREFKQLIYR [RIT1], the protein stability index is, setting by setting: under setting [1], 2.41 ± 0.25; under setting [2], 2.53 ± 0.46.

On to IILTATDGLFDNMPDYMILQELKK [PPTC7], for which the protein stability index reads like this: under setting [1], 2.31 ± 0.32; under setting [2], 2.22 ± 0.19.

Regarding IIRLVRVFRIFKLSRHSKGLQILG [KCNA4], the protein stability index is 2.25 ± 0.53 under setting [1] and 2.3 ± 0.4 under setting [2].

As to ILVSVAAGVSLSTLEELLPPNTRV [PYCR3], the protein stability index by setting is: under setting [1], 2.77 ± 0.49; under setting [2], 2.62 ± 0.54.

On to IMAFFLCLGLALGAVFSFLFRAIV [SLC29A1], for which the protein stability index turned out to be 1.94 ± 0.14 under setting [1] and 2.19 ± 0.21 under setting [2].

In the case of INPYSNRESRILFSTWNLDHIIEK [DFFB], the protein stability index by setting is: under setting [1], 2.54 ± 0.1; under setting [2], 2.61 ± 0.099.

In the case of IPKCSKIVIDFDSINSRPSQKLQ [DCTD], the protein stability index by setting is: under setting [3], 3.14 ± 0.31; under setting [4], 3.38 ± 0.32.

On to IPSWQIRTVKLIRYVSNWDFFIVG [PKD2L1], for which the protein stability index by setting is: under setting [1], 2.79 ± 0.52; under setting [2], 2.93 ± 0.7.

Consider IQIAFEEVPQLPPRASISHVTCVD [C2CD2L], for which the protein stability index was determined as 2.39 ± 0.16 under setting [1] and 2.46 ± 0.23 under setting [2].

Take IQLFEELQELLTHDTKDQSPSRAP [HMOX1]: the protein stability index was 3.3 ± 0.29 under setting [1] and 3.61 ± 0.45 under setting [2].

As for IRERPAAIPIEIKSIDDTSNFDDF [STK38L], the protein stability index under setting [1] is 4.31 ± 0.3 and the protein stability index under setting [2] was 4.92 ± 0.19.

As to ISYSSMLGAVAGLALGPILRLYKH [MFSD9], the protein stability index under setting [1] is 2.58 ± 0.5 and the protein stability index under setting [2] turned out to be 2.13 ± 0.25.

As to ITEKIDVAFVDRADIKQYIGPPSA [TRIP13], the protein stability index runs as follows: under setting [1], 3.6 ± 0.15; under setting [2], 3.54 ± 0.58.

ITPTKKIELDRTIMPDGTIVTTVT [C2CD2L]: the protein stability index runs as follows: under setting [1], 2.67 ± 0.25; under setting [2], 2.79 ± 0.22.

Consider ITRVLYEVFIEWGISAKVFGATTN [ZBED1], for which the protein stability index runs as follows: under setting [1], 3.15 ± 0.88; under setting [2], 3.04 ± 0.2.

With IVGFGLYGSIHGPTDYQVNIQIIE [BTBD1], the protein stability index is 2.63 ± 0.4 under setting [1] and 2.6 ± 0.47 under setting [2].

Turning to IVGYAFHFPHLLSPQIQRSAHRAL [TMEM175], the protein stability index worked out at 2.23 ± 0.24 under setting [1] and 2.54 ± 0.51 under setting [2].
